This series relates to Escherichia coli TOP10. As to the kind of experiment: shrunken log2 fold change of peptide-encoding DNA abundance (4.5 h post-induction vs induction); higher = less antimicrobial activity (less host growth inhibition). The following applies: time post-induction: 4.5 h; library: site-saturation at positions 5, 18, 19, 20.
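Also: peptides expressed intracellularly from a pBAD plasmid library in pooled LB shake-flask culture, induced with 0.3% L-arabinose, DNA abundance read by NGS, three biological replicates, DESeq2 with apeglm shrinkage.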

Turning to RRIRPRPPRLPRPRPRPQWTPRP, the “shrunken log2 fold change” value was -0.0535. In the case of RRIRGRPPRLPRPRPRPFMGPRP, the “shrunken log2 fold change” value was -0.123. On to RRIRPRPPRLPRPRPRPYYYPRP, for which the “shrunken log2 fold change” value is -0.937. The figure for RRIRARPPRLPRPRPRPQCCPRP is 0.219; for RRIRERPPRLPRPRPRPNKPPRP it is -0.0937. On to RRIRDRPPRLPRPRPRPNHTPRP, for which the “shrunken log2 fold change” value is -0.0643.

In the case of RRIRVRPPRLPRPRPRPIEGPRP, the “shrunken log2 fold change” value was -0.0117. The figure for RRIRWRPPRLPRPRPRPCYRPRP is 0.131.

In the case of RRIRERPPRLPRPRPRPDVHPRP, the “shrunken log2 fold change” value is -0.435.

With RRIRWRPPRLPRPRPRPSHAPRP, the “shrunken log2 fold change” value was -0.0866. RRIRQRPPRLPRPRPRPIPQPRP: the “shrunken log2 fold change” value is -0.0321. As for RRIRNRPPRLPRPRPRPFAQPRP, the “shrunken log2 fold change” value is -0.321. For RRIRRRPPRLPRPRPRPWKMPRP, the “shrunken log2 fold change” value is -0.00577. The figure for RRIRWRPPRLPRPRPRPHICPRP is 0.00277; for RRIRARPPRLPRPRPRPSAVPRP it is 0.282; for RRIRYRPPRLPRPRPRPAKSPRP it is -0.156.

Take RRIRHRPPRLPRPRPRPTLNPRP: the “shrunken log2 fold change” value turned out to be 0.134.

For RRIRTRPPRLPRPRPRPKWWPRP, the “shrunken log2 fold change” value was 0.683. For RRIRCRPPRLPRPRPRPEAHPRP, the “shrunken log2 fold change” value was 0.38. For the sequence RRIRMRPPRLPRPRPRPPWPPRP, the “shrunken log2 fold change” value was 1.1. With RRIRKRPPRLPRPRPRPQVNPRP, the “shrunken log2 fold change” value was -0.124.

As to RRIRMRPPRLPRPRPRPWKMPRP, the “shrunken log2 fold change” value came to 0.0322.

Regarding RRIRFRPPRLPRPRPRPENEPRP, the “shrunken log2 fold change” value worked out at 0.15. The figure for RRIRLRPPRLPRPRPRPDFAPRP is 0.0202; for RRIRMRPPRLPRPRPRPATKPRP it is 0.103; for RRIRWRPPRLPRPRPRPQPFPRP it is 0.133. To RRIRTRPPRLPRPRPRPMAHPRP belongs -0.161. With RRIRRRPPRLPRPRPRPWNCPRP, the “shrunken log2 fold change” value worked out at 0.0332. Consider RRIRVRPPRLPRPRPRPWIDPRP, for which the “shrunken log2 fold change” value is -0.134. Turning to RRIRRRPPRLPRPRPRPTSTPRP, the “shrunken log2 fold change” value came out at 0.158.

On to RRIRGRPPRLPRPRPRPMSMPRP, for which the “shrunken log2 fold change” value came to 0.257. For the sequence RRIRRRPPRLPRPRPRPRIVPRP, the “shrunken log2 fold change” value amounted to 0.00997. To RRIRARPPRLPRPRPRPPSKPRP belongs 0.491; to RRIRDRPPRLPRPRPRPGPAPRP, 0.608. With RRIRMRPPRLPRPRPRPHHHPRP, the “shrunken log2 fold change” value is -0.412. As to RRIRHRPPRLPRPRPRPYSQPRP, the “shrunken log2 fold change” value is -0.177. The figure for RRIRERPPRLPRPRPRPAVWPRP is 0.421. As to RRIRCRPPRLPRPRPRPYQYPRP, the “shrunken log2 fold change” value was -0.399. In the case of RRIRGRPPRLPRPRPRPFTVPRP, the “shrunken log2 fold change” value was -0.31.

With RRIRKRPPRLPRPRPRPWGVPRP, the “shrunken log2 fold change” value turned out to be 0.291. In the case of RRIRKRPPRLPRPRPRPGIHPRP, the “shrunken log2 fold change” value came to 0.149. Consider RRIRKRPPRLPRPRPRPTMFPRP, for which the “shrunken log2 fold change” value worked out at 0.165. The figure for RRIRLRPPRLPRPRPRPLSVPRP is -0.0123; for RRIRPRPPRLPRPRPRPCPHPRP it is -0.81. Consider RRIRPRPPRLPRPRPRPYQIPRP, for which the “shrunken log2 fold change” value is -0.314.

As to RRIRPRPPRLPRPRPRPAAIPRP, the “shrunken log2 fold change” value is 0.0249. For the sequence RRIRMRPPRLPRPRPRPNWVPRP, the “shrunken log2 fold change” value is -0.0816. In the case of RRIRTRPPRLPRPRPRPCLYPRP, the “shrunken log2 fold change” value is -0.342. To RRIRKRPPRLPRPRPRPWYAPRP belongs -0.132; to RRIRARPPRLPRPRPRPPPKPRP, 1.29; to RRIRMRPPRLPRPRPRPAIIPRP, 0.0113. In the case of RRIRHRPPRLPRPRPRPKDYPRP, the “shrunken log2 fold change” value was found to be 0.0577.

Turning to RRIRGRPPRLPRPRPRPYERPRP, the “shrunken log2 fold change” value is -1.8.

Regarding RRIRPRPPRLPRPRPRPLNLPRP, the “shrunken log2 fold change” value amounted to 0.177. The figure for RRIRLRPPRLPRPRPRPIRVPRP is 0.101; for RRIRYRPPRLPRPRPRPASRPRP it is -0.0366; for RRIRRRPPRLPRPRPRPMAWPRP it is 0.0237. RRIRQRPPRLPRPRPRPGGCPRP: the “shrunken log2 fold change” value is 0.546. As for RRIRCRPPRLPRPRPRPGTMPRP, the “shrunken log2 fold change” value is 0.0719. The figure for RRIRERPPRLPRPRPRPYGAPRP is -0.569; for RRIRDRPPRLPRPRPRPRLHPRP it is 0.11; for RRIRSRPPRLPRPRPRPSMCPRP it is -0.146. To RRIRPRPPRLPRPRPRPQTEPRP belongs 0.0275; to RRIRKRPPRLPRPRPRPIYWPRP, 0.165. With RRIRMRPPRLPRPRPRPDLDPRP, the “shrunken log2 fold change” value came to 2.65. RRIRTRPPRLPRPRPRPWCVPRP: the “shrunken log2 fold change” value is -0.212. Consider RRIRDRPPRLPRPRPRPGNWPRP, for which the “shrunken log2 fold change” value is -0.0358. With RRIRTRPPRLPRPRPRPNREPRP, the “shrunken log2 fold change” value came out at 0.115. The figure for RRIRNRPPRLPRPRPRPANVPRP is 0.0585; for RRIRWRPPRLPRPRPRPYFRPRP it is -0.787. As to RRIRKRPPRLPRPRPRPKLLPRP, the “shrunken log2 fold change” value was -0.158. Regarding RRIRCRPPRLPRPRPRPLFYPRP, the “shrunken log2 fold change” value is -0.764. The figure for RRIRNRPPRLPRPRPRPSGPPRP is -0.0894; for RRIRARPPRLPRPRPRPRMWPRP it is 0.164; for RRIRMRPPRLPRPRPRPLVNPRP it is 0.0639.

Consider RRIRLRPPRLPRPRPRPHQAPRP, for which the “shrunken log2 fold change” value is -0.216. As for RRIRPRPPRLPRPRPRPIWLPRP, the “shrunken log2 fold change” value was -0.132. Regarding RRIRARPPRLPRPRPRPSFIPRP, the “shrunken log2 fold change” value was -0.177. To RRIRLRPPRLPRPRPRPHMMPRP belongs -0.135; to RRIRGRPPRLPRPRPRPADYPRP, 0.025. Turning to RRIRWRPPRLPRPRPRPWQFPRP, the “shrunken log2 fold change” value was 0.00487. The figure for RRIRHRPPRLPRPRPRPALVPRP is -0.0926. The figure for RRIRRRPPRLPRPRPRPTFQPRP is 0.204; for RRIRCRPPRLPRPRPRPWPQPRP it is -0.0463; for RRIRVRPPRLPRPRPRPKWPPRP it is 0.4. With RRIRLRPPRLPRPRPRPCCFPRP, the “shrunken log2 fold change” value is -0.0513. In the case of RRIRERPPRLPRPRPRPKDNPRP, the “shrunken log2 fold change” value is -0.342. To RRIRMRPPRLPRPRPRPDRCPRP belongs 0.0778; to RRIRARPPRLPRPRPRPTWGPRP, 0.625. In the case of RRIRCRPPRLPRPRPRPYWQPRP, the “shrunken log2 fold change” value was -0.419. As to RRIRDRPPRLPRPRPRPAHGPRP, the “shrunken log2 fold change” value is -0.0897.

Turning to RRIRMRPPRLPRPRPRPTEPPRP, the “shrunken log2 fold change” value stood at 0.383. In the case of RRIRLRPPRLPRPRPRPFNMPRP, the “shrunken log2 fold change” value is -0.189.

With RRIRIRPPRLPRPRPRPINEPRP, the “shrunken log2 fold change” value was -0.516. The figure for RRIRLRPPRLPRPRPRPVDKPRP is -0.138. As to RRIRRRPPRLPRPRPRPSWAPRP, the “shrunken log2 fold change” value came to 0.157.

On to RRIRKRPPRLPRPRPRPGLTPRP, for which the “shrunken log2 fold change” value was 1.08.

Turning to RRIRWRPPRLPRPRPRPHCEPRP, the “shrunken log2 fold change” value is -0.262. Consider RRIRMRPPRLPRPRPRPQPIPRP, for which the “shrunken log2 fold change” value is -0.0134. The figure for RRIRERPPRLPRPRPRPPIFPRP is -0.0515. To RRIRSRPPRLPRPRPRPNDHPRP belongs -0.322; to RRIRNRPPRLPRPRPRPCPWPRP, -0.141; to RRIRVRPPRLPRPRPRPWRMPRP, 0.077. RRIRNRPPRLPRPRPRPQWSPRP: the “shrunken log2 fold change” value worked out at 0.129. Take RRIRMRPPRLPRPRPRPALNPRP: the “shrunken log2 fold change” value is 0.759. With RRIRKRPPRLPRPRPRPQGRPRP, the “shrunken log2 fold change” value was -0.078.

RRIRMRPPRLPRPRPRPTIKPRP: the “shrunken log2 fold change” value was determined as 0.0703. Consider RRIRYRPPRLPRPRPRPNEDPRP, for which the “shrunken log2 fold change” value was -0.246. With RRIRGRPPRLPRPRPRPWMCPRP, the “shrunken log2 fold change” value was -0.13. For RRIRFRPPRLPRPRPRPSAFPRP, the “shrunken log2 fold change” value is -0.204.

As for RRIRCRPPRLPRPRPRPEQNPRP, the “shrunken log2 fold change” value turned out to be 0.268. As to RRIRHRPPRLPRPRPRPIVEPRP, the “shrunken log2 fold change” value is -0.133. Regarding RRIRDRPPRLPRPRPRPPRCPRP, the “shrunken log2 fold change” value is 0.551. For the sequence RRIRDRPPRLPRPRPRPWISPRP, the “shrunken log2 fold change” value was -0.00776. For RRIRERPPRLPRPRPRPHKGPRP, the “shrunken log2 fold change” value is -0.194. Take RRIRIRPPRLPRPRPRPQQKPRP: the “shrunken log2 fold change” value is 0.0242.

On to RRIRLRPPRLPRPRPRPAGRPRP, for which the “shrunken log2 fold change” value is 0.0831.

For the sequence RRIRMRPPRLPRPRPRPYFIPRP, the “shrunken log2 fold change” value was -0.413. For the sequence RRIRRRPPRLPRPRPRPTSVPRP, the “shrunken log2 fold change” value is 0.227. To RRIRVRPPRLPRPRPRPTLQPRP belongs 0.0594; to RRIRQRPPRLPRPRPRPCAHPRP, -0.256; to RRIRHRPPRLPRPRPRPFERPRP, -0.128. On to RRIRRRPPRLPRPRPRPCGAPRP, for which the “shrunken log2 fold change” value amounted to 0.503. Turning to RRIRGRPPRLPRPRPRPAELPRP, the “shrunken log2 fold change” value is 0.472. Consider RRIRKRPPRLPRPRPRPDSDPRP, for which the “shrunken log2 fold change” value amounted to 0.123.

For the origin of these results see the supplement of paper PMC9112550, “Optimization of the antimicrobial peptide Bac7 by deep mutational scanning” (BMC Biology, 2022).
